Data reported in US20050107315A1, “Mammary-associated serum amuloid a3 promoter sequences and used for same” (Board of Regents of the University of Nebraska, priority 2001, published 2005).

Tested on: Bovine MAC-T mammary gland epithelial cells
Test: Colostrum-SAA production by MAC-T cells stimulated with prolactin (ELISA of growth media)
Format: cell-based
Experimental: Bovine MAC-T mammary gland epithelial cells were obtained from ATCC (CRL-10274) and cultured according to recommended conditions (Turner, J D and Huynh H. Immortalized bovine mammary epithelial cell line. U.S. Pat. No. 5,227,301 dated Jul. 13, 1993). MAC-T cells were cultured on Dulbecco's Modified Eagles Media (DMEM) supplemented with 10% Fetal Calf Serum (FCS), 5 μg/ml insulin, 1μg/ml hydrocortisone and fungizone. Cells were incubated at 37° C. with 5% CO2. For colostrum-SAA production the cells were seeded onto type I Collagen coated plates. After 14 hours of incubation, the cells were washed twice with Dulbecco's phosphate buffered saline (DPBS) and incubated in media (DMEM, 5 μg/ml insulin, 1 μg/ml hydrocortisone and 2.5% FCS) supplemented with prolactin from sheep pituitary gland (5 μg/ml) for the stimulation of colostrum-SAA production. Approximately one half of the media was replaced daily with fresh prolactin supplemented media. Standard ELISA for the quantitation of SAA was used to assay aliquots of the growth media collected on the different days for the presence of colostrum-SAA.
Cells were kept in culture for 41 days in media supplemented with prolactin. Levels of colostrum-SAA production reached a maximum of almost 3000 ng/ml.

B1: prolactin: prolactin from sheep pituitary gland (protein, UniProt P01240 31-229, looked up)
Prolactin: TPVCPNGPGNCQVSLRDLFDRAVMVSHYIHNLSSEMFNEFDKRYAQGKGFITMALNSCHTSSLPTPEDKEQAQQTHHEVLMSLILGLLRSWNDPLYHLVTEVRGMKGVPDAILSRAIEIEEENKRLLEGMEMIFGQVIPGAKETEPYPVWSGLPSLQTKDEDARHSAFYNLLHCLRRDSSKIDTYLKLLNCRIIYNNNC
For B1, the “maximum level of colostrum-SAA production” value (media supplemented with prolactin 5 μg/ml, 41 days in culture, collagen coated plates) was about 3000 ng/mL and the “day by which measurable quantities of colostrum-SAA could be detected” value (prolactin at 5 μg/ml, MAC T cells, 13 days of stimulation (FIG. 2)) was at most 1 days.
